Data taken from patent US20220306736A1 (Y BIOLOGICS, published 2022).
Substitutions are numbered along the chain they refer to.

B1: SA2283 (antibody, V domains shown)
VH: QVQLVESGGGLVKPGGSLRLSCAASGFTFSDYYMSWIRQAPGKGLEWVSYISSSGSTIYYADSVKGRFTISRDNAKNSLYLQMNSLRAEDTAVYYCARRYSAYETGYFDFWGQGTLVTVSS
VL: DIQMTQSPSSLSASVGDRVTITCRASQGISTYLNWYQQKPGKAPKLLIYSTSTLQTGVPSRFSGGGSGTDFTLTISSLQPEDFATYYCQQSYSAPPTFGPGTKVEIK
B2: SA2291 (antibody, V domains shown)
VH: QMQLVESGGGLVKPGGSLRLSCAASGFTFSDHYMSWIRQAPGKGLEWVSSISSGGGTIYYADSVKGRFTISRDNAKNSLYLQMNSLRAEDTAVYYCARREYDSDGHYYFDYWGQGILVTVSS
VL: SYELTQPPSVLVSPGQTARITCSGDALPKQYAYWYQQKPGQAPVLVMYKDNVRPSGIPERFSGSSSGTTVTLTISRVQAEDEADYYCQSVDSSDTSVVFGGGTKLTVL
B3: SA2386 (antibody, V domains shown)
VH: QVQLVESGGGLVKPGGSLRLSCAASGSTFRVAWVNWVRQAPGKGLEWVGRIKSNSDGGTTDYATPMKDRFIISRDDSKNTVFLQMNSLRAEDTAVYYCARHGDANAYYYGMDVWGQGTKVTVSS
VL: QSALTQPASVSGSPGQSITISCTGTSSDVGGYNYISWYQQHPGKAPRLLIYDVSDRPSGVSNRFSGSKSANTASLTISGLQAEDEADYYCSSYASSSTLYVFGTGTKVTVL
B4: SA2455 (antibody, V domains shown)
VH: QMQLVESGGGLVKPGGSLRLSCAASGFTFSDYYMSWIRQAPGKGLEWVSYISSSGSTIYYADSVKGRFTISRDNAKNSLYLQMNSLRAEDTAVYYCARPGYYYGLDVWGQGTTVTVSS
VL: DIQMTQSPSTLSASVGDRVTITCRASQSISSWLAWYQQKPGIAPKLLIYQASILDSGVPSRFSGSGSGTEFTLTISSLQPDDFATYYCQQYSSLWTFGPGTKVDIK
B5: SA2285 (antibody, V domains shown)
VH: QVTLRESGPTLVKPTQTLTLTCTFRGFSLNTPGMGVAWIRQPPGKALEWLGLVFWDDDKTYRPSLRNRLTITKETSKSQVVLTMTNMDPVDTATYYCARIRGYYDWGSYYSYGMDVWGQGTTVTVSS
VL: SYELTQPLSVSVALGQTARITCGGNNIGSKNVHWYQQKPGQAPVLVIYRDSNRPSGIPERFSGSNSGNTATLTISGVEAGDEADYYCQVWDSNSDQYVFGTGSKVTVL
B6: SA2390 (antibody, V domains shown)
VH: QVQLVESGGGLVQPGRSLRLSCAASGFTFDDYAMHWVRQAPGKGLEWISGISWNSGNIVYADSVKGRFTISRDNAKNSLYLQMNSLRAEDTAVYYCARETALAFDMWGPGTMVTVSS
VL: DIQMTQSPSSVSASVGDRVTITCRASQGISYWLAWYQQKPGIAPKLLIFASSRLHSGVPSRFNGSGSGTDFTLTINSLQPEDFATYYCLQATSFPYTFGQGTKLEIK
B7: SA1975 (antibody, V domains shown)
VH: QVQLVESGAEIKKPGASMNVSCKASGYIFTNYYIHWVRQAPGQGLEWIGIIDPSGGSTTYAQKFQHRVTMTSDTSTSTVYMELIGLGSEDTAVYYCARDYWGSLDYWGQGTLVTVSS
VL: NFMLTQPHSVSESPGKTVTISCTRSSGSIASNYVQWYQQRPGSAPTIVIYENYLRPSEVPDRFSGSIDSSSNSASLTISGLKTEDEGDYYCQSYDSRNRNYVFGTGTKVTVL
B8: SA2290 (antibody, V domains shown)
VH: QMQLVESGAEVKKPGASVKVSCKASGYTFTSYGISWVRQAPGQGLEWMGWISAYNGNTNYAQKLQGRVTMTTDTSTSTAYMELRSLRSEDTAVYYCARDYWGSLDHWGQGALVTVSS
VL: B7 VL with E12G, A30D, S31I, V48I, N52D, Y53S, L54Q, P56T, E58G, S69R
B9: SA1956 (antibody, V domains shown)
VH: QVTLKESGPTLVKPTQTLTLTCTFSGFSLTTSGVAVAWIRQPPGKALEWLALIYWDGDERYSSSLKNRLTITKDTSKSQVVLTMTNMDPVDTATYYCARIRGYYDWGSYYSYGMDVWGQGTTVTVSS
VL: SYELTQPLSVSVALGQTARITCGGNNIGSKNVHWYQQKPGQAPVLVIYRDSNRPSGIPERFSGSNSGNTATLTISRAQAGDEADYYCQVWDSSTHVVFGGGTKLTVL
B10: SA1957 (antibody, V domains shown)
VH: QVTLRESGPTLVKPTQTLTLTCTFSGFSFNTPGEGVTWIRQPPGKALEWLALIYWDDEKHYNPSLNGRLTITKDTSKSQVVLTMTNMDPVDTATYYCARIRGYYDWGSYYSYGMDVWGQGTTITVSS
VL: B9 VL with N68D, R76G
B11: SA2287 (antibody, V domains shown)
VH: QVQLVESGGGVVQPGRSLRLSCAASGFTFSSRGMHWVRQAPGKGLEWVALIWYHGSDDSYADSVKGRFTISRDNSKNMVYLQMNSLRAEDTAVYYCANLGATDGFDIWGQGTVVTVSS
VL: QSALTQPASVSGSPGQSITISCTGTSSDVSAYNYVSWYQQHPGKAPKLMIYGVSDRPSGVSFRFSGSKSGNTASLTISGLQAEDEAYYYCNSYTTSNTWVFGGGTKLTVL

Each binder was assayed against T1, hVSIG4(S)-hFc (human) (assay: western blot, 100 ng hVSIG4 short-hFc (FIG. 11B)).
T1 construct: also called VGIG4(S)-Fc; hVSIG4 short-hFc (S)
Procedure: (A) Binding to hVSIG4(S) and hVSIG4(L) was assayed by ELISA with the original scFv versions of the 11 human anti-VSIG4 antibodies. (B) Binding to hVSIG4(S) and hVSIG4(L) was assayed by western blotting with the 11 full-length human anti-VSIG4 antibodies. NRH: Non-reduced, heated; RH: Reduced, heated.
In each case, 100 ng of hVSIG4 long-hFc (L) and hVSIG4 short-hFc (S) were probed with the specific anti-VSIG4 antibody.

| binding result | Binder |
| --- | --- |
| binds | B1 |
| binds | B2 |
| binds | B3 |
| binds | B4 |
| binds | B5 |
| binds | B6 |
| binds | B7 |
| binds | B8 |
| binds | B9 |
| binds | B10 |
| binds | B11 |
